Assay results from article PMC6451337, “The Toxoplasma gondii dense granule protein TgGRA3 interacts with host Golgi and dysregulates anterograde transport” (Biology Open, 2019).

Tests used:
[1] = molecular target: the molecule itself; assay: SEC; GRA3_(43-161) cleaved from GST with PreScission protease, Superdex 200 Increase 3.2/300 column, AKTA Micro FPLC; protein standards 12,000-200,000 for the standard curve
[2] = molecular target: the molecule itself; assay: native gel or EMSA; proteins cleaved from glutathione-Sepharose beads with PreScission protease in 25 mM Tris pH 8, 1 mM DTT, 0.5 mM PMSF, 1 mM EDTA; 10% Tris-glycine native gel, unheated against heated; Coomassie Blue stain and Western blot

Protein | stoichiometry N [1] | binding result [2]
GRA3_(43-161), cleaved from GST (domain or fragment, Toxoplasma gondii, UniProt B6KEU8 43-161, looked up, amplified from parasite cDNA; Cloned at the BamHI site of pGEX6-P3; also called TgGRA3 recombinant protein; source: E. coli BL21, purified on glutathione-Sepharose, cleaved with PreScission protease; not shown: GST, N-terminal, cleaved) ADQPENHQALAEPVTGVGEAGVSPVNEAGESYSSATSGVQEATAPGAVLLDAIDAESDKVDNQAEGGERMKKVEEELSLLRRELYDRTDRPGLKRAVILSLATSAAIGGRMVSRTLRDN | 2 | 
GRA3_HA-Δ43-71 (domain or fragment, Toxoplasma gondii, UniProt B6KEU8 72-161, looked up, also called GST-HA-Δ43-71, after cleavage; source: E. coli BL21, captured on glutathione-Sepharose beads, cleaved with PreScission protease; not shown: GST, N-terminal, cleaved; HA, N-terminal, kept) ESYSSATSGVQEATAPGAVLLDAIDAESDKVDNQAEGGERMKKVEEELSLLRRELYDRTDRPGLKRAVILSLATSAAIGGRMVSRTLRDN |  | binds
